The data set is described as follows: total protein half-life in vivo (active degradation + dilution); higher = more stable protein.
Where [1] appears, read: E. coli NCM3722 delta-clpP delta-lon delta-hslV, growth: N-lim chemostat, doubling time 6 h.
Where [2] appears, read: E. coli NCM3722 delta-clpP, growth: N-lim chemostat, doubling time 6 h.
The mark [3] stands for this setting: E. coli NCM3722 delta-hslV, growth: N-lim chemostat, doubling time 6 h.
Where [4] appears, read: E. coli NCM3722 delta-lon, growth: N-lim chemostat, doubling time 6 h.
Setting [5] is: E. coli NCM3722 delta-smpB, growth: N-lim chemostat, doubling time 6 h.
[6] abbreviates: wild type E. coli NCM3722, growth: C-lim chemostat, doubling time 3 h.
[7] abbreviates: wild type E. coli NCM3722, growth: C-lim chemostat, doubling time 6 h.
Setting [8] is: wild type E. coli NCM3722, growth: C-lim chemostat, doubling time 12 h.
[9] abbreviates: wild type E. coli NCM3722, growth: N-lim chemostat, doubling time 6 h.
The mark [10] stands for this setting: wild type E. coli NCM3722, growth: N-lim chemostat, doubling time 12 h.
Setting [11] is: wild type E. coli NCM3722, growth: P-lim chemostat, doubling time 6 h.
Setting [12] is: wild type E. coli NCM3722, growth: P-lim chemostat, doubling time 12 h.

± gives the standard deviation of the averaged measurements.

For “MNQTLLSSFGTPFERVENALAALREGRGVMVLDDEDRENEGDMIFPAETMTVEQMALTIRHGSGIVCLCITEDRRKQLDLPMMVENNTSAYGTGFTVTIEAAEGVTTGVSAADRITTVRAAIADGAKPSDLNRPGHVFPLRAQAGGVLTRGGHTEATIDLMTLAGFKPAGVLCELTNDDGTMARAPECIEFANKHNMALVTIEDLVAYRQAHERKAS [P0A7J0]”, the “total protein half-life in vivo” value worked out at 5.39 ± 0.59 h under setting [1]; 4.61 ± 0.68 h under setting [2]; 1.27 ± 0.23 h under setting [3]; 1.22 ± 0.28 h under setting [4]; 1.02 ± 0.1 h under setting [5]; 1.2 ± 0.25 h under setting [6]. For the same sequence, the “total protein half-life in vivo” value is 1.2 ± 0.21 h under setting [7]; 1.35 ± 0.13 h under setting [8]; 1.291 ± 0.0046 h under setting [9]; 1.52 ± 0.086 h under setting [10]; 0.987 h under setting [11]; 1.82 ± 1.1 h under setting [12].

In the case of “MSEQHAQGADAVVDLNNELKTRREKLANLREQGIAFPNDFRRDHTSDQLHAEFDGKENEELEALNIEVAVAGRMMTRRIMGKASFVTLQDVGGRIQLYVARDDLPEGVYNEQFKKWDLGDILGAKGKLFKTKTGELSIHCTELRLLTKALRPLPDKFHGLQDQEARYRQRYLDLISNDESRNTFKVRSQILSGIRQFMVNRGFMEVETPMMQVIPGGAAARPFITHHNALDLDMYLRIAPELYLKRLVVGGFERVFEINRNFRNEGISVRHNPEFTMMELYMAYADYKDLIELTESLFRTLAQDILGKTEVTYGDVTLDFGKPFEKLTMREAIKKYRPETDMADLDNFDSAKAIAESIGIHVEKSWGLGRIVTEIFEEVAEAHLIQPTFITEYPAEVSPLARRNDVNPEITDRFEFFIGGREIGNGFSELNDAEDQAQRFLDQVAAKDAGDDEAMFYDEDYVTALEHGLPPTAGLGIGIDRMVMLFTNSHTIRDVILFPAMRPVK [P0A8N3]”, the “total protein half-life in vivo” value by setting is: under setting [1], 5.76 ± 0.38 h; under setting [2], 5.45 ± 0.16 h; under setting [3], 5.23 ± 0.14 h; under setting [4], 5.58 ± 0.26 h; under setting [5], 5.19 ± 0.12 h; under setting [6], 3.07 ± 0.11 h. Also, the “total protein half-life in vivo” value runs as follows: under setting [7], 5.894 ± 0.022 h; under setting [8], 10.3 ± 0.74 h; under setting [9], 4.98 ± 0.45 h; under setting [10], 8.8 ± 0.29 h; under setting [11], 5.67 ± 0.29 h; under setting [12], 10.6 ± 0.79 h.

As for “MAEKQTAKRNRREEILQSLALMLESSDGSQRITTAKLAASVGVSEAALYRHFPSKTRMFDSLIEFIEDSLITRINLILKDEKDTTARLRLIVLLLLGFGERNPGLTRILTGHALMFEQDRLQGRINQLFERIEAQLRQVLREKRMREGEGYTTDETLLASQILAFCEGMLSRFVRSEFKYRPTDDFDARWPLIAAQLQ [P0C093]”, the “total protein half-life in vivo” value runs as follows: under setting [1], 6.82 ± 0.62 h; under setting [3], 5.04 ± 0.42 h; under setting [4], 5.5 ± 0.72 h; under setting [5], 4.65 ± 0.39 h; under setting [6], 2.5806 ± 0.0014 h; under setting [7], 5.49 ± 0.15 h. For the same sequence, the “total protein half-life in vivo” value was 9.76 ± 1.4 h under setting [8]; 4.89 ± 0.97 h under setting [9]; 9.106 ± 0.086 h under setting [10]; 4.14 ± 0.13 h under setting [11]; 7.01 ± 0.77 h under setting [12].

With “MSSDIKIKVQSFGRFLSNMVMPNIGAFIAWGIITALFIPTGWLPNETLAKLVGPMITYLLPLLIGYTGGKLVGGERGGVVGAITTMGVIVGADMPMFLGSMIAGPLGGWCIKHFDRWVDGKIKSGFEMLVNNFSAGIIGMILAILAFLGIGPIVEALSKMLAAGVNFMVVHDMLPLASIFVEPAKILFLNNAINHGIFSPLGIQQSHELGKSIFFLIEANPGPGMGVLLAYMFFGRGSAKQSAGGAAIIHFLGGIHEIYFPYVLMNPRLILAVILGGMTGVFTLTILGGGLVSPASPGSILAVLAMTPKGAYFANIAGVCAAMAVSFVVSAILLKTSKVKEEDDIEAATRRMQDMKAESKGASPLSAGDVTNDLSHVRKIIVACDAGMGSSAMGAGVLRKKIQDAGLSQISVTNSAINNLPPDVDLVITHRDLTERAMRQVPQAQHISLTNFLDSGLYTSLTERLVAAQRHTANEEKVKDSLKDSFDDSSANLFKLGAENIFLGRKAATKEEAIRFAGEQLVKGGYVEPEYVQAMLDREKLTPTYLGESIAVPHGTVEAKDRVLKTGVVFCQYPEGVRFGEEEDDIARLVIGIAARNNEHIQVITSLTNALDDESVIERLAHTTSVDEVLELLAGRK”, the “total protein half-life in vivo” value was 6.55 ± 0.42 h under setting [1]; 6.42 ± 0.66 h under setting [2]; 6.25 ± 0.23 h under setting [3]; 6.64 ± 0.41 h under setting [5]; 3.35 ± 0.32 h under setting [6]; 6.92 ± 0.54 h under setting [7]. The “total protein half-life in vivo” value by setting is: under setting [8], 12.66 ± 0.082 h; under setting [9], 6.4 ± 0.15 h; under setting [11], 6.275 ± 0.059 h; under setting [12], 13.8 ± 1.2 h.

As to “MEWSLTQNKLLAFHRLMRTDKPIGALLLLWPTLWALWVATPGVPQLWILAVFVAGVWLMRAAGCVVNDYADRKFDGHVKRTANRPLPSGAVTEKEARALFVVLVLISFLLVLTLNTMTILLSIAALALAWVYPFMKRYTHLPQVVLGAAFGWSIPMAFAAVSESVPLSCWLMFLANILWAVAYDTQYAMVDRDDDVKIGIKSTAILFGQYDKLIIGILQIGVLALMAIIGELNGLGWGYYWSILVAGALFVYQQKLIANREREACFKAFMNNNYVGLVLFLGLAMSYWHF [P0AGK1]”, the “total protein half-life in vivo” value stood at 1.5 ± 0.18 h under setting [1]; 1.13 h under setting [2]; 1.29 h under setting [3]; 0.759 h under setting [4]; 1.45 ± 0.17 h under setting [5]; 1.27 ± 0.027 h under setting [6]. Further, the “total protein half-life in vivo” value runs as follows: under setting [7], 1.92 ± 0.27 h; under setting [8], 2.32 ± 0.41 h; under setting [9], 1.29 ± 0.2 h; under setting [11], 2.18 ± 0.52 h; under setting [12], 2.85 h.

With “MSTIIMDLCSYTRLGLTGYLLSRGVKKREINDIETVDDLAIACDSQRPSVVFINEDCFIHDASNSQRIKLIINQHPNTLFIVFMAIANVHFDEYLLVRKNLLISSKSIKPESLDDILGDILKKETTITSFLNMPTLSLSRTESSMLRMWMAGQGTIQISDQMNIKAKTVSSHKGNIKRKIKTHNKQVIYHVVRLTDNVTNGIFVNMR [P0DMC9]”, the “total protein half-life in vivo” value amounted to 5.4 ± 0.66 h under setting [1], 1 ± 0.029 h under setting [4] and 1.51 ± 0.036 h under setting [5].

On to “MPQQNYLDELTPAFTSLLAIKEASRCLLCHDAPCSQACPAQTDPGKFIRSIYFRNFKGAAETIRENNALGAVCARVCPTEKLCQSGCTRAGVDAPIDIGRLQRFVTDFEQQTGMEIYQPGTKTLGKVAIIGAGPAGLQASVTLTNQGYDVTIYEKEAHPGGWLRNGIPQFRLPQSVLDAEIARIEKMGVTIKCNNEVGNTLTLEQLKAENRAVLVTVGLSSGSGLPLFEHSDVEIAVDFLQRARQAQGDISIPQSALIIGGGDVAMDVASTLKVLGCQAVTCVAREELDEFPASEKEFTSARELGVSIIDGFTPVAVEGNKVTFKHVRLSGELTMAADKIILAVGQHARLDAFAELEPQRNTIKTQNYQTRDPQVFAAGDIVEGDKTVVYAVKTGKEAAEAIHHYLEGACSC”, for which the “total protein half-life in vivo” value by setting is: under setting [1], more than 8 h; under setting [6], 1.14 ± 0.029 h; under setting [7], 1.42 ± 0.22 h; under setting [8], 2.52 ± 1.1 h.

In the case of “MVDQVKVVADDQAPAEQSLRRNLTNRHIQLIAIGGAIGTGLFMGSGKTISLAGPSIIFVYMIIGFMLFFVMRAMGELLLSNLEYKSFSDFASDLLGPWAGYFTGWTYWFCWVVTGMADVVAITAYAQFWFPDLSDWVASLAVIVLLLTLNLATVKMFGEMEFWFAMIKIVAIVSLIVVGLVMVAMHFQSPTGVEASFAHLWNDGGWFPKGLSGFFAGFQIAVFAFVGIELVGTTAAETKDPEKSLPRAINSIPIRIIMFYVFALIVIMSVTPWSSVVPEKSPFVELFVLVGLPAAASVINFVVLTSAASSANSGVFSTSRMLFGLAQEGVAPKAFAKLSKRAVPAKGLTFSCICLLGGVVMLYVNPSVIGAFTMITTVSAILFMFVWTIILCSYLVYRKQRPHLHEKSIYKMPLGKLMCWVCMAFFVFVVVLLTLEDDTRQALLVTPLWFIALGLGWLFIGKKRAAELRK [P0AAE0]”, the “total protein half-life in vivo” value came to 4.28 ± 0.25 h under setting [1]; 3.4 ± 0.0052 h under setting [2]; 3.26 ± 0.38 h under setting [3]; 2.95 ± 0.22 h under setting [4]; 3.33 ± 0.25 h under setting [5]; 3.28 ± 0.5 h under setting [6]. Further, the “total protein half-life in vivo” value by setting is: under setting [8], 8.36 ± 0.32 h; under setting [9], 3.26 ± 0.58 h; under setting [10], 5 ± 0.22 h; under setting [11], 4.74 ± 0.37 h; under setting [12], 6.57 ± 0.66 h.

The record behind these values is the supplement of paper PMC11246515.
